Data as given in the supplement of paper PMC5998384.

Key:
[1] = test system: HeLa Kyoto; test: solubility in G1/S (NP-40 vs SDS abundance) (log2 ratio); higher = more soluble; conditions: cell cycle stage: G1/S
[2] = test system: HeLa Kyoto; test: melting temperature (median over replicates), in situ; higher = more thermally stable
[3] = test system: HeLa Kyoto; test: solubility change mitosis vs G1/S (difference of NP-40 vs SDS log2 ratios) (log2 ratio difference); higher = more soluble in mitosis
[4] = test system: HeLa Kyoto; test: thermal stability score vs G1/S (z-score of summed log2 fold changes over temperatures); higher = more thermally stable than in G1/S
[5] = cell cycle stage: early G1 (4.5 h after nocodazole release)
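Throughout, for melting temperature (median over replicates), in situ: HeLa Kyoto cells synchronized by double thymidine or nocodazole block, proteins quantified by TMT10plex mass spectrometry, three independent biological replicates.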
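Throughout, for solubility change mitosis vs G1/S (difference of NP-40 vs SDS log2 ratios): synchronized HeLa Kyoto cells (double thymidine block for G1/S, nocodazole release for mitosis), protein amounts in NP-40 versus SDS lysates quantified by mass spectrometry, three biological replicates.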
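Throughout, for solubility in G1/S (NP-40 vs SDS abundance): HeLa Kyoto cells arrested at G1/S by double thymidine block, proteins quantified by TMT10plex mass spectrometry in mild NP-40 versus SDS extracts, three biological replicates.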
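Throughout, for thermal stability score vs G1/S (z-score of summed log2 fold changes over temperatures): synchronized HeLa Kyoto cells, proteins quantified by TMT10plex mass spectrometry, three biological replicates, mitosis taken 0.5 h after nocodazole release, G1/S directly after double thymidine block.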

Substance	solubility in G1/S (log2) [1]	melting temperature ([2]; cell cycle stage: G1/S)	melting temperature ([2]; cell cycle stage: mitosis)	solubility change mitosis (log2) [3]	thermal stability score [4, 5]	thermal stability score ([4]; cell cycle stage: mitosis)
MAAAGAAVARSPGIGAGPALRARRSPPPRAARLPRLLVLLAAAAVGPGAGGAARLYRAGEDAVWVLDSGSVRGATANSSAAWLVQFYSSWCGHCIGYAPTWRALAGDVRDWASAIRVAALDCMEEKNQAVCHDYDIHFYPTFRYFKAFTKEFTTGENFKGPDRELRTVRQTMIDFLQNHTEGSRPPACPRLDPIQPSDVLSLLDNRGSHYVAIVFESNSSYLGREVILDLIPYESIVVTRALDGDKAFLEKLGVSSVPSCYLIYPNGSHGLINVVKPLRAFFSSYLKSLPDVRKKSLPLPEKPHKEENSEIVVWREFDKSKLYTVDLESGLHYLLRVELAAHKSLAGAELKTLKDFVTVLAKLFPGRPPVKKLLEMLQEWLASLPLDRIPYNAVLDLVNNKMRISGIFLTNHIKWVGCQGSRSELRGYPCSLWKLFHTLTVEASTHPDALVGTGFEDDPQAVLQTMRRYVHTFFGCKECGEHFEEMAKESMDSVKTPDQAILWLWKKHNMVNGRLAGHLSEDPRFPKLQWPTPDLCPACHEEIKGLASWDEGHVLTFLKQHYGRDNLLDTYSADQGDSSEGGTLARGEEEEKRLTPPEVSHGDRDTQSVRPPGALGPRPALPESLHHSLDGKLQSLDGPGAHKEVGGAAPFLGVDFSSLDMSLCVVLYVASSLFLMVMYFFFRVRSRRWKVKHHHPAV [QSOX2]	0.207	54.7 °C	54.9 °C	0.252	-2.12	-0.982
MSEKENNFPPLPKFIPVKPCFYQNFSDEIPVEHQVLVKRIYRLWMFYCATLGVNLIACLAWWIGGGSGTNFGLAFVWLLLFTPCGYVCWFRPVYKAFRADSSFNFMAFFFIFGAQFVLTVIQAIGFSGWGACGWLSAIGFFQYSPGAAVVMLLPAIMFSVSAAMMAIAIMKVHRIYRGAGGSFQKAQTEWNTGTWRNPPSREAQYNNFSGNSLPEYPTVPSYPGSGQWP [SCAMP4]	-0.117	57 °C	60.3 °C	0.144	-1.67	-2.1
MRRQWGSAMRAAEQAGCMVSASRAGQPEAGPWSCSGVILSRSPGLVLCHGGIFVPFLRAGSEVLTAAGAVFLPGDSCRDDLRLHVQWAPTAAGPGGGAERGRPGLCTPQCASLEPGPPAPSRGRPLQPRLPAELLLLLSCPAFWAHFARLFGDEAAEQWRFSSAARDDEVSEDEEADQLRALGWFALLGVRLGQEEVEEERGPAMAVSPLGAVPKGAPLLVCGSPFGAFCPDIFLNTLSCGVLSNVAGPLLLTDARCLPGTEGGGVFTARPAGALVALVVAPLCWKAGEWVGFTLLCAAAPLFRAARDALHRLPHSTAALAALLPPEVGVPWGLPLRDSGPLWAAAAVLVECGTVWGSGVAVAPRLVVTCRHVSPREAARVLVRSTTPKSVAIWGRVVFATQETCPYDIAVVSLEEDLDDVPIPVPAEHFHEGEAVSVVGFGVFGQSCGPSVTSGILSAVVQVNGTPVMLQTTCAVHSGSSGGPLFSNHSGNLLGIITSNTRDNNTGATYPHLNFSIPITVLQPALQQYSQTQDLGGLRELDRAAEPVRVVWRLQRPLAEAPRSKL [TYSND1]	-0.163	55.1 °C	54 °C	0.0273	-2.49	-2.64
PPIH	0.00262	49.9 °C	49.5 °C	0.0864	1.19	0.86
METQLSNGPTCNNTANGPTTINNNCSSPVDSGNTEDSKTNLIVNYLPQNMTQEELKSLFGSIGEIESCKLVRDKITGQSLGYGFVNYIDPKDAEKAINTLNGLRLQTKTIKVSYARPSSASIRDANLYVSGLPKTMTQKELEQLFSQYGRIITSRILVDQVTGISRGVGFIRFDKRIEAEEAIKGLNGQKPPGATEPITVKFANNPSQKTNQAILSQLYQSPNRRYPGPLAQQAQRFRLDNLLNMAYGVKRFSPMTIDGMTSLAGINIPGHPGTGWCIFVYNLAPDADESILWQMFGPFGAVTNVKVIRDFNTNKCKGFGFVTMTNYDEAAMAIASLNGYRLGDRVLQVSFKTNKTHKA [ELAVL2]	0.208	52.6 °C	52.2 °C	-0.0286	-0.26	-1.01
MSEASSEDLVPPLEAGAAPYREEEEAAKKKKEKKKKSKGLANVFCVFTKGKKKKGQPSSAEPEDAAGSRQGLDGPPPTVEELKAALERGQLEAARPLLALERELAAAAAAGGVSEEELVRRQSKVEALYELLRDQVLGVLRRPLEAPPERLRQALAVVAEQEREDRQAAAAGPGTSGLAATRPRRWLQLWRRGVAEAAEERMGQRPAAGAEVPESVFLHLGRTMKEDLEAVVERLKPLFPAEFGVVAAYAESYHQHFAAHLAAVAQFELCERDTYMLLLWVQNLYPNDIINSPKLVGELQGMGLGSLLPPRQIRLLEATFLSSEAANVRELMDRALELEARRWAEDVPPQRLDGHCHSELAIDIIQITSQAQAKAESITLDLGSQIKRVLLVELPAFLRSYQRAFNEFLERGKQLTNYRANVIANINNCLSFRMSMEQNWQVPQDTLSLLLGPLGELKSHGFDTLLQNLHEDLKPLFKRFTHTRWAAPVETLENIIATVDTRLPEFSELQGCFREELMEALHLHLVKEYIIQLSKGRLVLKTAEQQQQLAGYILANADTIQHFCTQHGSPATWLQPALPTLAEIIRLQDPSAIKIEVATYATCYPDFSKGHLSAILAIKGNLSNSEVKRIRSILDVSMGAQEPSRPLFSLIKVG [TNFAIP2]	0.296	50.4 °C	48.2 °C	-0.0517	0.545	1.06
MWGACKVKVHDSLATISITLRRYLRLGATMAKSKFEYVRDFEADDTCLAHCWVVVRLDGRNFHRFAEKHNFAKPNDSRALQLMTKCAQTVMEELEDIVIAYGQSDEYSFVFKRKTNWFKRRASKFMTHVASQFASSYVFYWRDYFEDQPLLYPPGFDGRVVVYPSNQTLKDYLSWRQADCHINNLYNTVFWALIQQSGLTPVQAQGRLQGTLAADKNEILFSEFNINYNNELPMYRKGTVLIWQKVDEVMTKEIKLPTEMEGKKMAVTRTRTKPVPLHCDIIGDAFWKEHPEILDEDS [THG1L]	-0.0679	53.3 °C	53.5 °C	-0.0698	0.242	-0.354
